# Test results published in PMC8136769, “Structural variation affecting DNA backbone interactions underlies adaptation of B3 DNA binding domains to constraints imposed by protein architecture”.
# Key:
# [1] = target: T1, GST-FUS3-B3 (Arabidopsis thaliana, UniProt Q9LW31); assay: EMSA; BLI: Octet Qke, 1x Kinetics Buffer (ForteBio), pH 7.0, 0.05 uM biotinylated probe on streptavidin, temperature not stated; EMSA: MgCl2, 0.05% NP-40, 0.5 nM probe, 15 ul, room temperature 20 min, 6% gel in 0.5x TBE (rest of buffer not in material); settings: protein: recombinant; tags: GST (N-terminal, pGEX-2T); label: 5' biotin on strand 1 (strand 2 oligo also named 5-Biotin-probe); blunt
# T1 chain: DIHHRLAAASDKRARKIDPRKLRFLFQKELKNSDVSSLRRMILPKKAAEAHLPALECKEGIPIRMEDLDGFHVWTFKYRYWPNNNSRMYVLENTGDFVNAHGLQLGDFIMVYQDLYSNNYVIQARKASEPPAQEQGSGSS
# [2] = target: T2, GST-LEC2-B3 (Arabidopsis thaliana, UniProt Q1PFR7); assay: as above; settings: protein: recombinant; tags: GST (N-terminal, pGEX-2T); label: 5' biotin on strand 1 (strand 2 oligo also named 5-Biotin-probe); blunt
# T2 chain: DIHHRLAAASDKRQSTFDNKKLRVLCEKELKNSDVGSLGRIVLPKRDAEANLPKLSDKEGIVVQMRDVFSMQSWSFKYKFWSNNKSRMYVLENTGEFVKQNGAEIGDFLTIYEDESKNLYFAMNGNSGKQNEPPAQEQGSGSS
binder,measurement,setting,value
Sph2 probe (dsDNA) DNA 1: CACGGATCATGCATGGACGACACGGATCATGCATGGACGACACG DNA 2: CGTGTCGTCCATGCATGATCCGTGTCGTCCATGCATGATCCGTG,Kd,[1],1.28 nM
same,Kd,[2],198 nM
